Tests used:
human CD3ε (human) = human CD3ε (human) (UniProt P07766); assay: BIACORE and Scatchard; monovalent KD of anti-CD3 arm; legend prints 2.5 nM
[1] = biological target: truncated human FcRH5 (deletion of amino acids 1-744) with N-terminal gD tag (human) (UniProt Q96RD9); assay: cell-based or functional assay
Chain of truncated human FcRH5 (deletion of amino acids 1-744) with N-terminal gD tag (human) (Q96RD9 745-977, stated change not applied): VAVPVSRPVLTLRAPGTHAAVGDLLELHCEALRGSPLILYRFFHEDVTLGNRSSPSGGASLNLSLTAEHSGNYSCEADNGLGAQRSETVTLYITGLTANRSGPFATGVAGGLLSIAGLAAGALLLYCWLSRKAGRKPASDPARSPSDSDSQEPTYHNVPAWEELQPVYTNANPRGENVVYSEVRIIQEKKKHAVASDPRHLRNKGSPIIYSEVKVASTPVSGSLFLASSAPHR

Chain of human CD3ε (human) (P07766 22-126): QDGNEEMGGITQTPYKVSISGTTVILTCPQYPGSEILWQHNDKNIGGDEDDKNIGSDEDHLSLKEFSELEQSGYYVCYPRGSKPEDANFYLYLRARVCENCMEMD

Row | Substance | Kd (human CD3ε (human)) [nM] | killing of cells expressing the truncated target, EC50 [1] [nM]
1 | anti-CD3 antibody huUCHT1.v9 | 2 | –
2 | anti-gD/UCHT1.v9 TDB (bispecific antibody) | – | 0.19
